From article doi:10.1101/619841

Assays:
[1] = biological target: cross-linked and fluorescent HIV-1 CA tubes co-assembled from CA A14C/E45C and labelled CA K158C (HIV-1); assay: TIRF microscopy biosensor
[2] = biological target: cross-linked and fluorescent HIV-1 CA tubes co-assembled from CA A14C/E45C and labelled CA K158C (HIV-1); assay: TIRF microscopy biosensor, equilibrium binding

## full length CPSF6 fused at its N-terminus to GFP (natural protein)
[1]
  molar binding ratio (370 nM analyte) (molecules per CA): 0.2

## cyclophilin A labelled at Cys51 with Alexa Fluor 647 (from UniProt P62937 1-165) (natural protein)
[2]
  Kd: 8 µM
  stoichiometry N: 0.5 CypA per CA
